Assay results from patent publication US20070098715A1.

Biological target: Ten-M2 endogenously expressed on human cancer cell lines (SNB-19 and others) (human) (UniProt Q9NT68)
Assay: flow cytometry on SNB-19 cells at 4° C., Alexa647 anti-human IgG secondary

Total Bound Fluorescence: 2.2
Substance: isotype control Ab (antibody)
